Source: PMC4345318, “Dynamic association of PfEMP1 and KAHRP in knobs mediates cytoadherence during Plasmodium invasion” (Scientific Reports, 2015)

T1: VARC (cytoplasmic acidic terminal sequence domain of P. falciparum erythrocyte membrane protein-1, PfEMP1) (Plasmodium falciparum, UniProt Q8IAK2 2467-2757)
T1 construct: also called ATS; cytoplasmic domain of PfEMP1; source: E. coli BL21 (DE3) CodonPlus, purified (Ni-NTA, gel permeation chromatography on Superdex 75)
T1 sequence: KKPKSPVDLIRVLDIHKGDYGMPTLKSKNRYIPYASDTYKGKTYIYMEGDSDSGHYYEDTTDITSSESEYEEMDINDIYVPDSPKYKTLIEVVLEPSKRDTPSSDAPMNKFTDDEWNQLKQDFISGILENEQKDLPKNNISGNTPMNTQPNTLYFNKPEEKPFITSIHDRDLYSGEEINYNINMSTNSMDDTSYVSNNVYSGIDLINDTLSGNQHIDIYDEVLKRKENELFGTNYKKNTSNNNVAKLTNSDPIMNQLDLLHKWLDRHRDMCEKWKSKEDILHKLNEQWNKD

B1: K2A1 (first of the two tandem repeats of the K2A region of knob associated histidine rich protein, KAHRP) (domain or fragment)
chain: KHHSSKKHEGNDGEGEKKKKSKKHKDHDGEKKKSKKHKDNEDAESVKSKK
notes: also called truncated K2A; source: E. coli BL21 (DE3) CodonPlus, purified (Ni-NTA, gel permeation chromatography on Superdex 75); not shown: His6, C-terminal, kept

Columns and labels:
[1] = target: VARC (acidic terminal segment, cytoplasmic domain fragment of PfEMP1, comprising VARC A and VARC B); assay: ITC (GE MicroCal ITC200); details: pH 6.9, 298 K, 0.013 M (no added salt), 10 mM sodium phosphate
[2] = target: T1, VARC (cytoplasmic acidic terminal …); assay: NMR titration; 2D [15N,1H] HSQC of 10 μM 15N-labelled K2A1 with unlabelled VARC added at 1:1, 1:2.5, 1:5, 1:7.5 and 1:10 molar ratios; 278 K; 10 mM sodium phosphate pH 6.2, 5 mM DTT, no additional salt (ionic strength 0.013 M); Kd by fit of amide chemical shift perturbations; the 1:5 complex also measured at 20, 50, 100 and 150 mM NaCl; details: both partners purified
[3] = target: T1, VARC (cytoplasmic acidic terminal …); assay: ITC; 0.7 mM K2A1 in the syringe, 0.07 mM VARC in the cell; 298 K; 10 mM sodium phosphate pH 6.9, 5 mM DTT, no additional salt; 40 injections of 1 μL; fitted to a sequential four site model, and to a simple hetero-association model (A + B <-> AB) in SEDPHAT for an apparent global Kd; details: both partners purified

| Molecule | Kd (first value, four-site sequential model) [1] [µM] | Kd (fourth value, four-site sequential model) [1] [µM] | Kd (second value, four-site sequential model) [1] [µM] | Kd (third value, four-site sequential model) [1] [µM] | Kd [2] [µM] | Kd [3] [µM] | Kd of site 1 (four-site binding model) [3] [µM] | Kd of site 2 (four-site binding model) [3] [µM] | Kd of site 3 (four-site binding model) [3] [µM] | Kd of site 4 (four-site binding model) [3] [µM] |
| --- | --- | --- | --- | --- | --- | --- | --- | --- | --- | --- |
| K2A1 (first tandem repeat of the K2A lysine-rich region of knob-associated histidine-rich protein, KAHRP) | 9.8 | 9.6 | 10.3 | 10.1 | – | – | – | – | – | – |
| B1 | – | – | – | – | 7 to 15 | 32.1 | 9.8 | 10.3 | 10.1 | 9.6 |
